Results: PMC9482650, “Quantitative fragmentomics allow affinity mapping of interactomes” (Nature Communications, 2022)

How the values were obtained:
Test in all cases: holdup assay
Design in all cases: key: below the threshold = too weak to quantify, mostly under pKd 3.1 to 4
GOPC, Q9HD26 = biological target: GOPC, Q9HD26
NHERF4_1, Q86UT5-2 = biological target: NHERF4_1, Q86UT5-2
LIMK2, P53671 = biological target: LIMK2, P53671
DLG1_3, Q12959 = biological target: DLG1_3, Q12959
SNX27, Q96L92 = biological target: SNX27, Q96L92
GRIP1_7, Q9Y3R0 = biological target: T1, GRIP1_7, Q9Y3R0
T1 sequence (Q9Y3R0 999-1096, limits assumed, looked up): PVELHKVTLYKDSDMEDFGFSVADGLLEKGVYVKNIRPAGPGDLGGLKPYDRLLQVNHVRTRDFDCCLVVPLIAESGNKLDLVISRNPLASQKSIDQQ

SCRIB_1, Q14160 = biological target: SCRIB_1, Q14160
DLG4_1, P78352 = biological target: DLG4_1, P78352
GORASP2, Q9H8Y8 = biological target: GORASP2, Q9H8Y8
SCRIB_2, Q14160 = biological target: SCRIB_2, Q14160
DFNB31_3, Q9P202 = biological target: T2, DFNB31_3, Q9P202
T2 sequence (Q9P202 811-907, limits assumed, looked up): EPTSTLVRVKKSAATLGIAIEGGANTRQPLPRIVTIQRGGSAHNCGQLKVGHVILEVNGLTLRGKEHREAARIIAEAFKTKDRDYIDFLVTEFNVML

MAGI2_5, Q86UL8 = biological target: MAGI2_5, Q86UL8
PDZD2_2, O15018 = biological target: T3, PDZD2_2, O15018
T3 sequence (O15018 329-429, limits assumed, looked up): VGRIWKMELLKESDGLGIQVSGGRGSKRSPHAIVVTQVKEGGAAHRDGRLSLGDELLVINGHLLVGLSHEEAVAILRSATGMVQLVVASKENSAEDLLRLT

TJP3_3, O95049 = biological target: T4, TJP3_3, O95049
T4 sequence (O95049 375-456, limits assumed, looked up): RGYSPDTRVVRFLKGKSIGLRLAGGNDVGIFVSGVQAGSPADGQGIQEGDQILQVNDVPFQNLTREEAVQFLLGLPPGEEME

GRIP2_3, Q9C0E4 = biological target: GRIP2_3, Q9C0E4
DLG4_3, P78352 = biological target: DLG4_3, P78352
FRMPD4, Q14CM0 = biological target: FRMPD4, Q14CM0
LNX1_1, Q8TBB1 = biological target: LNX1_1, Q8TBB1
MAST2, Q6P0Q8 = biological target: MAST2, Q6P0Q8
MAGI2_3, Q86UL8 = biological target: MAGI2_3, Q86UL8
Inadl_2, Q8NI35 = biological target: Inadl_2, Q8NI35
NHERF4_4, Q86UT5 = biological target: NHERF4_4, Q86UT5
HTRA4, P83105 = biological target: T5, HTRA4, P83105
T5 sequence (P83105 378-476, limits assumed, looked up): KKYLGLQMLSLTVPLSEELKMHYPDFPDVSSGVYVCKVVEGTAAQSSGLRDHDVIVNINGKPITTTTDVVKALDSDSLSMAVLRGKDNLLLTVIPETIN

DLG3_3, Q92796 = biological target: T6, DLG3_3, Q92796
T6 sequence (Q92796 374-475, limits assumed, looked up): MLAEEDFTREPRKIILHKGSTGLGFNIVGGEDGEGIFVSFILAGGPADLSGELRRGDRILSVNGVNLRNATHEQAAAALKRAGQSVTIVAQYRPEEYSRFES

Inadl_8, Q8NI35 = biological target: Inadl_8, Q8NI35
FRMPD2_1, Q68DX3 = biological target: FRMPD2_1, Q68DX3
DLG4_2, P78352 = biological target: DLG4_2, P78352
LNX1_3, Q8TBB1 = biological target: LNX1_3, Q8TBB1
NHERF3_1, Q5T2W1 = biological target: T7, NHERF3_1, Q5T2W1
T7 sequence (Q5T2W1 4-100, limits assumed, looked up): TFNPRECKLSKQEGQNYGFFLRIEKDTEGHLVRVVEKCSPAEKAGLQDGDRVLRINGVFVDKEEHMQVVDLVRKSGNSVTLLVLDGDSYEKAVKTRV

APBA2_1, Q99767 = biological target: T8, APBA2_1, Q99767
T8 sequence (Q99767 563-664, limits assumed, looked up): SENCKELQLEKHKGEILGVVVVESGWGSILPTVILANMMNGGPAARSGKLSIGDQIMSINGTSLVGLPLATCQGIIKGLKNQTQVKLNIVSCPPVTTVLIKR

DLG2_2, Q15700 = biological target: DLG2_2, Q15700
[1] = plain residues with an end cap or a label only (N-terminal biotin on a linker: ado-ado)
[2] = plain residues with an end cap or a label only (N-terminal biotin on a linker: ttds)

Chain of LIMK2, P53671 (P53671 143-248): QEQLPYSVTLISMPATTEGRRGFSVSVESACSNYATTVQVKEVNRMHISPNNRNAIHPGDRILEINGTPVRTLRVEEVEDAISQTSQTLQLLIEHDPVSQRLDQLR
Chain of SCRIB_1, Q14160 (Q14160 718-814): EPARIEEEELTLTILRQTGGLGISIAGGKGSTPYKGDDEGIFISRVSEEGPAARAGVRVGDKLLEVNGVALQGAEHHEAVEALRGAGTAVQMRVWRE
Chain of DLG4_2, P78352 (P78352 155-259): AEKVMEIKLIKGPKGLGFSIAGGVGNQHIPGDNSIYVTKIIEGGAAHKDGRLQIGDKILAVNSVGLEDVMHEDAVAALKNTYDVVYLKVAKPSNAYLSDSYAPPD
Chain of Inadl_2, Q8NI35 (Q8NI35 238-335): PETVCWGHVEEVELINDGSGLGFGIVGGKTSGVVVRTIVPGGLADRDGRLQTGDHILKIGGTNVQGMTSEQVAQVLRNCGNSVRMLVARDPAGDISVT
Chain of NHERF4_1, Q86UT5-2 (Q86UT5 other isoform, or with tags, fused parts or gaps): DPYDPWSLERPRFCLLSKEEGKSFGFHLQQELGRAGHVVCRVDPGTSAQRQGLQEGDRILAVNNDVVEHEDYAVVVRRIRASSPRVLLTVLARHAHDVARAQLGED
Chain of FRMPD2_1, Q68DX3 (Q68DX3 770-861): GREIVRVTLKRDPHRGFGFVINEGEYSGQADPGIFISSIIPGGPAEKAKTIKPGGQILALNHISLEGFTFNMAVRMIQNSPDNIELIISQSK
Chain of SCRIB_2, Q14160 (Q14160 857-960): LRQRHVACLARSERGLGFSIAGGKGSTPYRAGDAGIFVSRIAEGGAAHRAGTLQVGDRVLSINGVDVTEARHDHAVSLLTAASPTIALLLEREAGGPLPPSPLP
Chain of MAGI2_5, Q86UL8 (Q86UL8 915-1017): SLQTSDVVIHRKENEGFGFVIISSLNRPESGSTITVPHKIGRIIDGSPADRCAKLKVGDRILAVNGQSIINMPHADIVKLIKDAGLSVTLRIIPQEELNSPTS
Chain of MAST2, Q6P0Q8 (Q6P0Q8 1099-1202): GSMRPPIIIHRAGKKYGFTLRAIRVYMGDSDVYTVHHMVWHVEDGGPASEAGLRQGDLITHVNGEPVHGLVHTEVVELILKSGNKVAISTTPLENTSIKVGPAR
Chain of DLG2_2, Q15700 (Q15700 189-283): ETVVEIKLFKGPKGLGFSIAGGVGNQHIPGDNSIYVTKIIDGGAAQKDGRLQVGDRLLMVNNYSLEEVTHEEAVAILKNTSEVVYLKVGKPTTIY
Chain of GRIP2_3, Q9C0E4 (Q9C0E4 238-339): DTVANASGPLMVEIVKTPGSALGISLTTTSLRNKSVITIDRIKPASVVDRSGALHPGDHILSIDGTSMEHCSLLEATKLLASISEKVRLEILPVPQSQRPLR
Chain of DLG1_3, Q12959 (Q12959 457-571): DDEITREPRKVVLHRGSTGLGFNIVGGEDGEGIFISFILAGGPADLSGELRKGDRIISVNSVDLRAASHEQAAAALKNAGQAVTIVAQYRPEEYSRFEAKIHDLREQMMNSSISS
Chain of Inadl_8, Q8NI35 (Q8NI35 1425-1530): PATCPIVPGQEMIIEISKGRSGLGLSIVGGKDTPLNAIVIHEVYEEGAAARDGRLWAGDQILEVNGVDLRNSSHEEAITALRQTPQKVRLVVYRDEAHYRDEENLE
Chain of DLG4_1, P78352 (P78352 62-152): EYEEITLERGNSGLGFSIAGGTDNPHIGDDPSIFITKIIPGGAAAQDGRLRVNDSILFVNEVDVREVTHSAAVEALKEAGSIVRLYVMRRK
Chain of FRMPD4, Q14CM0 (Q14CM0 67-160): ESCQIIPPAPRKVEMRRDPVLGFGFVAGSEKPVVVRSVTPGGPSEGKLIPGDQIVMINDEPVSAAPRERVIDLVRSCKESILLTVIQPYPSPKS
Chain of NHERF4_4, Q86UT5 (Q86UT5 464-550): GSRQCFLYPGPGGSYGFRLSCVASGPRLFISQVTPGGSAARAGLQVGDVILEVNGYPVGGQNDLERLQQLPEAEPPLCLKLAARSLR
Chain of LNX1_3, Q8TBB1 (Q8TBB1 500-596): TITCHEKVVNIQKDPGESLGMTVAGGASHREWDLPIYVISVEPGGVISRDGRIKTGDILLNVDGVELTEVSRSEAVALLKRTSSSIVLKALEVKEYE
Chain of LNX1_1, Q8TBB1 (Q8TBB1 261-371): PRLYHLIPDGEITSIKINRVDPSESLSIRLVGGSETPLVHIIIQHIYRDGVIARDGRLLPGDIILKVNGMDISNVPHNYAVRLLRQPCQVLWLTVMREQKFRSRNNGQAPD
Chain of MAGI2_3, Q86UL8 (Q86UL8 600-682): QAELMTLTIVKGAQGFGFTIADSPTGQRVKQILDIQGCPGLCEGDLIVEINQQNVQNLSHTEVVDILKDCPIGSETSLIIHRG
Chain of DLG4_3, P78352 (P78352 306-403): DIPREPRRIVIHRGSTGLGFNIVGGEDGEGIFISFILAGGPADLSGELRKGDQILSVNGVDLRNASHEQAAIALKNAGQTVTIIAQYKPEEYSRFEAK

FVHPILQSAV [PRKCA, P17252]
pKd (GOPC, Q9HD26; [1]): 4 | pKd (NHERF4_1, Q86UT5-2; [1]): 3.78 | pKd (LIMK2, P53671; [1]): below the threshold | pKd (DLG1_3, Q12959; [1]): 3.85 | pKd (SNX27, Q96L92; [1]): 4.68 | pKd (GRIP1_7, Q9Y3R0; [1]): below the threshold | pKd (SCRIB_1, Q14160; [1]): 4.57 | pKd (DLG4_1, P78352; [1]): 4.07 | pKd (GORASP2, Q9H8Y8; [1]): below the threshold | pKd (SCRIB_2, Q14160; [1]): 4.29 | pKd (DFNB31_3, Q9P202; [1]): 3.57 | pKd (MAGI2_5, Q86UL8; [1]): 4.73 | pKd (PDZD2_2, O15018; [1]): 5.1 | pKd (TJP3_3, O95049; [1]): below the threshold | pKd (GRIP2_3, Q9C0E4; [1]): below the threshold | pKd (DLG4_3, P78352; [1]): 3.88 | pKd (FRMPD4, Q14CM0; [1]): below the threshold | pKd (LNX1_1, Q8TBB1; [1]): 4.02 | pKd (MAST2, Q6P0Q8; [1]): 5.35 | pKd (MAGI2_3, Q86UL8; [1]): 3.83 | pKd (Inadl_2, Q8NI35; [1]): below the threshold | pKd (NHERF4_4, Q86UT5; [1]): below the threshold | pKd (HTRA4, P83105; [1]): below the threshold | pKd (DLG3_3, Q92796; [1]): 3.57 | pKd (Inadl_8, Q8NI35; [1]): 4.71 | pKd (FRMPD2_1, Q68DX3; [1]): below the threshold | pKd (DLG4_2, P78352; [1]): 4.53 | pKd (LNX1_3, Q8TBB1; [1]): below the threshold | pKd (NHERF3_1, Q5T2W1; [1]): 4.82 | pKd (APBA2_1, Q99767; [1]): below the threshold | pKd (DLG2_2, Q15700; [1]): 4.04

DPRNTQTSQI [ABRAXAS2, Q15018]
pKd (GOPC, Q9HD26; [2]): 4.13 | pKd (NHERF4_1, Q86UT5-2; [2]): below the threshold | pKd (LIMK2, P53671; [2]): below the threshold | pKd (DLG1_3, Q12959; [2]): 3.52 | pKd (SNX27, Q96L92; [2]): 4.04 | pKd (GRIP1_7, Q9Y3R0; [2]): below the threshold | pKd (SCRIB_1, Q14160; [2]): 4.02 | pKd (DLG4_1, P78352; [2]): 3.65 | pKd (GORASP2, Q9H8Y8; [2]): below the threshold | pKd (SCRIB_2, Q14160; [2]): below the threshold | pKd (DFNB31_3, Q9P202; [2]): 3.67 | pKd (MAGI2_5, Q86UL8; [2]): below the threshold | pKd (PDZD2_2, O15018; [2]): 4.44 | pKd (TJP3_3, O95049; [2]): below the threshold | pKd (GRIP2_3, Q9C0E4; [2]): 3.6 | pKd (DLG4_3, P78352; [2]): below the threshold | pKd (FRMPD4, Q14CM0; [2]): below the threshold | pKd (LNX1_1, Q8TBB1; [2]): below the threshold | pKd (MAST2, Q6P0Q8; [2]): 4.55 | pKd (MAGI2_3, Q86UL8; [2]): below the threshold | pKd (Inadl_2, Q8NI35; [2]): below the threshold | pKd (NHERF4_4, Q86UT5; [2]): below the threshold | pKd (HTRA4, P83105; [2]): 3.48 | pKd (DLG3_3, Q92796; [2]): 3.66 | pKd (Inadl_8, Q8NI35; [2]): 3.54 | pKd (FRMPD2_1, Q68DX3; [2]): below the threshold | pKd (DLG4_2, P78352; [2]): 3.55 | pKd (LNX1_3, Q8TBB1; [2]): below the threshold | pKd (NHERF3_1, Q5T2W1; [2]): 3.91 | pKd (APBA2_1, Q99767; [2]): below the threshold | pKd (DLG2_2, Q15700; [2]): below the threshold

LCALPKVTTV [AGMAT, Q9BSE5]
pKd (GOPC, Q9HD26; [2]): 3.78 | pKd (NHERF4_1, Q86UT5-2; [2]): below the threshold | pKd (LIMK2, P53671; [2]): below the threshold | pKd (DLG1_3, Q12959; [2]): 4.77 | pKd (SNX27, Q96L92; [2]): 4.43 | pKd (GRIP1_7, Q9Y3R0; [2]): below the threshold | pKd (SCRIB_1, Q14160; [2]): 4.39 | pKd (DLG4_1, P78352; [2]): 4.69 | pKd (GORASP2, Q9H8Y8; [2]): 5.18 | pKd (SCRIB_2, Q14160; [2]): below the threshold | pKd (DFNB31_3, Q9P202; [2]): 3.69 | pKd (MAGI2_5, Q86UL8; [2]): 3.63 | pKd (PDZD2_2, O15018; [2]): 4.44 | pKd (TJP3_3, O95049; [2]): below the threshold | pKd (GRIP2_3, Q9C0E4; [2]): below the threshold | pKd (DLG4_3, P78352; [2]): 4.23 | pKd (FRMPD4, Q14CM0; [2]): below the threshold | pKd (LNX1_1, Q8TBB1; [2]): 3.98 | pKd (MAST2, Q6P0Q8; [2]): 4.88 | pKd (MAGI2_3, Q86UL8; [2]): 4.4 | pKd (Inadl_2, Q8NI35; [2]): below the threshold | pKd (NHERF4_4, Q86UT5; [2]): below the threshold | pKd (HTRA4, P83105; [2]): 4.66 | pKd (DLG3_3, Q92796; [2]): 4.47 | pKd (Inadl_8, Q8NI35; [2]): 4.82 | pKd (FRMPD2_1, Q68DX3; [2]): below the threshold | pKd (DLG4_2, P78352; [2]): 5.29 | pKd (LNX1_3, Q8TBB1; [2]): 3.61 | pKd (NHERF3_1, Q5T2W1; [2]): below the threshold | pKd (APBA2_1, Q99767; [2]): below the threshold | pKd (DLG2_2, Q15700; [2]): 5.35
